Among the data in paper PMC6347702 are Km and Vmax values, retold here.

Substrate in data set [1]: OC[C@H]1OC(O)[C@H](O)[C@@H](O)[C@@H]1O
Put plainly: radiochemical kinase assay, recombinant enzyme. The data set is classed as biochemical, Homo sapiens. Particulars: ADP-Mg2+.

Substrate in data set [2]: OC[C@H]1OC(O)[C@H](O)[C@@H](O)[C@@H]1O
The data set can be described thus: spectrophotometric kinase assay, recombinant enzyme. As to conditions: ATP-Mg2+. The data set is classed as biochemical, Homo sapiens.

B1: ADP-glucokinase (∆50-hADPG) (Homo sapiens) (protein)
chain: VSPEGRLAAAWDALIVRPVRRWRRVAVGVNACVDVVLSGVKLLQALGLSPGNGKDHSILHSRNDLEEAFIHFMGKGAAAERFFSDKETFHDIAQVASEFPGAQHYVGGNAALIGQKFAANSDLKVLLCGPVGPKLHELLDDNVFVPPESLQEVDEFHLILEYQAGEEWGQLKAPHANRFIFSHDLSNGAMNMLEVFVSSLEEFQPDLVVLSGLHMMEGQSKELQRKRLLEVVTSISDIPTGIPVHLELASMTNRELMSSIVHQQVFPAVTSLGLNEQELLFLTQSASGPHSSLSSWNGVPDVGMVSDILFWILKEHGRSKSRASDLTRIHFHTLVYHILATVDGHWANQLAAVAAGARVAGTQACATETIDTSRVSLRAPQEFMTSHSEAGSRIVLNPNKPVVEWHREGISFHFTPVLVCKDPIRTVGLGDAISAEGLFYSEVHPHY
In general, Km refers to the concentration of substrate that gives half-maximal velocity. Turning to B1, the Michaelis constant (Km) in data set [1] is 12.3 ± 1.3 µM.

B2: hexokinase 3 (hHK3) (Homo sapiens) (protein)
chain: MDSIGSSGLRQGEETLSCSEEGLPGPSDSSELVQECLQQFKVTRAQLQQIQASLLGSMEQALRGQASPAPAVRMLPTYVGSTPHGTEQGDFVVLELGATGASLRVLWVTLTGIEGHRVEPRSQEFVIPQEVMLGAGQQLFDFAAHCLSEFLDAQPVNKQGLQLGFSFSFPCHQTGLDRSTLISWTKGFRCSGVEGQDVVQLLRDAIRRQGAYNIDVVAVVNDTVGTMMGCEPGVRPCEVGLVVDTGTNACYMEEARHVAVLDEDRGRVCVSVEWGSFSDDGALGPVLTTFDHTLDHESLNPGAQRFEKMIGGLYLGELVRLVLAHLARCGVLFGGCTSPALLSQGSILLEHVAEMEDPSTGAARVHAILQDLGLSPGASDVELVQHVCAAVCTRAAQLCAAALAAVLSCLQHSREQQTLQVAVATGGRVCERHPRFCSVLQGTVMLLAPECDVSLIPSVDGGGRGVAMVTAVAARLAAHRRLLEETLAPFRLNHDQLAAVQAQMRKAMAKGLRGEASSLRMLPTFVRATPDGSERGDFLALDLGGTNFRVLLVRVTTGVQITSEIYSIPETVAQGSGQQLFDHIVDCIVDFQQKQGLSGQSLPLGFTFSFPCRQLGLDQGILLNWTKGFKASDCEGQDVVSLLREAITRRQAVELNVVAIVNDTVGTMMSCGYEDPRCEIGLIVGTGTNACYMEELRNVAGVPGDSGRMCINMEWGAFGDDGSLAMLSTRFDASVDQASINPGKQRFEKMISGMYLGEIVRHILLHLTSLGVLFRGQQIQRLQTRDIFKTKFLSEIESDSLALRQVRAILEDLGLPLTSDDALMVLEVCQAVSQRAAQLCGAGVAAVVEKIRENRGLEELAVSVGVDGTLYKLHPRFSSLVAATVRELAPRCVVTFLQSEDGSGKGAALVTAVACRLAQLTRV
On to B2, for which the Km in data set [2] is 12.2 ± 1 µM.

B3: hexokinase 2 (∆28-hHK2) (Homo sapiens) (protein)
chain: MRLSDETLLEISKRFRKEMEKGLGATTHPTAAVKMLPTFVRSTPDGTEHGEFLALDLGGTNFRVLWVKVTDNGLQKVEMENQIYAIPEDIMRGSGTQLFDHIAECLANFMDKLQIKDKKLPLGFTFSFPCHQTKLDESFLVSWTKGFKSSGVEGRDVVALIRKAIQRRGDFDIDIVAVVNDTVGTMMTCGYDDHNCEIGLIVGTGSNACYMEEMRHIDMVEGDEGRMCINMEWGAFGDDGSLNDIRTEFDQEIDMGSLNPGKQLFEKMISGMYMGELVRLILVKMAKEELLFGGKLSPELLNTGRFETKDISDIEGEKDGIRKAREVLMRLGLDPTQEDCVATHRICQIVSTRSASLCAATLAAVLQRIKENKGEERLRSTIGVDGSVYKKHPHFAKRLHKTVRRLVPGCDVRFLRSEDGSGKGAAMVTAVAYRLADQHRARQKTLEHLQLSHDQLLEVKRRMKVEMERGLSKETHASAPVKMLPTYVCATPDGTEKGDFLALDLGGTNFRVLLVRVRNGKWGGVEMHNKIYAIPQEVMHGTGDELFDHIVQCIADFLEYMGMKGVSLPLGFTFSFPCQQNSLDESILLKWTKGFKASGCEGEDVVTLLKEAIHRREEFDLDVVAVVNDTVGTMMTCGFEDPHCEVGLIVGTGSNACYMEEMRNVELVEGEEGRMCVNMEWGAFGDNGCLDDFRTEFDVAVDELSLNPGKQRFEKMISGMYLGEIVRNILIDFTKRGLLFRGRISERLKTRGIFETKFLSQIESDCLALLQVRAILQHLGLESTCDDSIIVKEVCTVVARRAAQLCGAGMAAVVDRIRENRGLDALKVTVGVDGTLYKLHPHFAKVMHETVKDLAPKCDVSFLQSEDGSGKGAALITAVACRIREAGQR
As usually defined, the Vmax is the rate approached at saturating substrate. As to B3, in data set [2], the maximal velocity (Vmax) was found to be 35.4 µmol/min/mg.
